Data on 8 substances can be found in patent publication US20190314479A1.

One assay deals with HLA-A2 molecules. Nature of the assay: T2A2 peptide binding assay to HLA-A2.
As for “HPV-16 E7 agonist peptide E7-A1 (T19V) (peptide; other documents disagree on this pair)”, the T2A2 Binding came to 1170.
With “HPV-16 E6 native peptide E6-1 (E6 11-19)”, the T2A2 Binding was 853.
Still for that read-out and setting: then “HPV-16 E6 agonist peptide E6-A3 (Q91L/L99V) (peptide; other documents disagree on this pair)”, with 1280; and “HPV-16 E6 agonist peptide E6-A1 (L19V) (peptide; other documents disagree on this pair)”, with 1340; and “HPV-16 E7 agonist peptide E7-A2 (L15V) (peptide; other documents disagree on this pair)”, with 1530.
On the same count and under the same terms, then “HPV-16 E7 agonist peptide E7-A3 (T86V) (peptide; other documents disagree on this pair)”, with 1260; and “HPV-16 E6 agonist peptide E6-A2 (C80V) (peptide; other documents disagree on this pair)”, with 877.

The target of the next assay is HLA-A2 molecules. Description: T2A2 peptide binding assay to HLA-A2, negative control.
Regarding NEG (Negative control) (peptide), the T2A2 Binding was found to be 812.
